Measurements from the supplement of paper PMC10724198.
± gives the standard deviation of the averaged measurements.

System: Saccharomyces cerevisiae
Test: protein stability index of tFT-peptide fusion (C-terminal peptide) (PSI (0-1 scale)); higher = more stable (slower turnover)
Conditions: genetic background: wild type; temperature: 30 C
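Also: PSI is a weighted mean of sequencing reads over stability bins, variants kept only with over 10 reads, mCherry proximal and sfGFP distal, peptide attached via GGGS linker.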

Sequence | protein stability index
REKKDKKNSKKI | 0.701 ± 0.022
REMKGKLHEHRK | 0.6792 ± 0.0029
RETGTSVEQVRT | 0.68 ± 0.036
RETPPALRSFPV | 0.613 ± 0.26
REVLYCTSMLQD | 0.707 ± 0.038
REVSGLTIRMVR | 0.659 ± 0.03
REWCSGGPCAAS | 0.721 ± 0.043
REYGVKRIEIKQ | 0.682 ± 0.04
RFAEEDFIVERT | 0.727 ± 0.019
RFAGCFSFFRAA | 0.683 ± 0.035
RFALSCITPCIL | 0.661 ± 0.069
RFAWLPAPGRIV | 0.647 ± 0.015
RFCIARGSLLDY | 0.554 ± 0.025
RFCVTASDLREF | 0.751 ± 0.057
RFDFSVTPHLGF | 0.668 ± 0.036
RFEFFHLVSWLL | 0.644 ± 0.052
RFGRGAGGGLGG | 0.6763 ± 0.0013
RFGSFVSISRVG | 0.603 ± 0.14
RFGWRRGRVGSS | 0.734 ± 0.038
RFLPALSRSLPS | 0.782 ± 0.11
RFPFSFSGFFLL | 0.5532 ± 0.0033
RFPPFSFAPCLI | 0.712 ± 0.035
RFPPWVSSIFAF | 0.494 ± 0.0082

Sequence | protein stability index
RFPSSCAPLSPY | 0.621 ± 0.029
RFPVLRFPASFL | 0.669 ± 0.048
RGAGRTHCLRAP | 0.6613 ± 0.0055
RGAHPCLDLRSE | 0.654 ± 0.067
RGAPLSPPPPRS | 0.714 ± 0.13
RGARVGKGDACW | 0.607 ± 0.069
RGCRVMATGVGV | 0.651 ± 0.022
RGCSGGVVDWIG | 0.679 ± 0.017
RGEARDARGLEW | 0.763 ± 0.12
RGEVGKVRGPGT | 0.71 ± 0.052
RGFKEPLSFKAG | 0.613 ± 0.059
RGGASGPFVWAG | 0.71 ± 0.057
RGGEGVWVVGRV | 0.703 ± 0.075
RGGERAGETAGQ | 0.695 ± 0.053
RGGFVEGFVLVR | 0.611 ± 0.073
RGGGPTGARPAM | 0.711 ± 0.1
RGGGQVLGARVG | 0.634 ± 0.017
RGGGWGRKVSVG | 0.659 ± 0.095
RGGPSPAASSRG | 0.725 ± 0.057
RGGRGGPGWVAG | 0.681 ± 0.025
RGHKATNICHSV | 0.721 ± 0.042
RGIILSSSGFVW | 0.735 ± 0.012
RGKRGRRGDEAG | 0.712 ± 0.093

Sequence | protein stability index
RGLVRLIRGGYN | 0.698 ± 0.18
RGMGPGAFVSGQ | 0.677 ± 0.077
RGPAFAQPLPFL | 0.738 ± 0.034
RGPELDRRLPLC | 0.663 ± 0.03
RGPGKKQIISQK | 0.741 ± 0.02
RGPGSNGSLPWF | 0.689 ± 0.056
RGRAGTRGVVEK | 0.71 ± 0.024
RGRAPLRRPPGP | 0.717 ± 0.048
RGRAVGVGGGGV | 0.626 ± 0.027
RGRCLGAESRGG | 0.767 ± 0.069
RGRKEQSKKKKE | 0.647 ± 0.13
RGRLCRESGSRS | 0.711 ± 0.033
RGRMGLGSPGGG | 0.639 ± 0.06
RGRRRAADRSLR | 0.749 ± 0.14
RGRSLPIPHTFP | 0.714 ± 0.085
RGSTLPRRVRLK | 0.641 ± 0.042
RGSVDGTLQKPG | 0.6691 ± 0.00087
RGSWSDEFWREG | 0.84 ± 0.056
RGTVPHSLDLYL | 0.679 ± 0.025
RGVETGRGREKE | 0.643 ± 0.046
RGVRLGPSVVVG | 0.696 ± 0.051
RHLALSRPTPFP | 0.703 ± 0.04
RHLSRSVSKVLR | 0.629 ± 0.06

Sequence | protein stability index
RHPTHPVSSLNP | 0.777 ± 0.05
RHSCLRFPPLHL | 0.694 ± 0.1
RHSHSLSITHLP | 0.675 ± 0.091
RHYKNKGQTRVR | 0.699 ± 0.051
RIEEQMIKNEWE | 0.6932 ± 0.0047
RIGELRYATQMK | 0.676 ± 0.052
RILLIRRKEKYL | 0.5578 ± 0.0028
RILPSPVSAGGF | 0.62 ± 0.026
RINKIKRKKRIK | 0.618 ± 0.062
RIPIGDSHIALK | 0.692 ± 0.1
RIRGGVLYKGVG | 0.666 ± 0.016
RIRLNHAMSTVV | 0.625 ± 0.019
RIRRITAGRQRY | 0.793 ± 0.067
RIRVKSLAPSPS | 0.74 ± 0.17
RITWRSKKGLVI | 0.71 ± 0.031
RKAPLLFSLSHK | 0.6761 ± 0.0031
RKATGVLQVQDY | 0.749 ± 0.14
RKEEEGNYWNRI | 0.651 ± 0.02
RKEKNRKEKSIQ | 0.668 ± 0.013
RKFGQRQKRECN | 0.7085 ± 0.0066
RKGKARKKQKRI | 0.721 ± 0.1
RKICVEDIKESI | 0.669 ± 0.013
RKIIIINLQKIK | 0.586 ± 0.024

Sequence | protein stability index
RKIQNASLGRGA | 0.7 ± 0.037
RKISLNSPPRES | 0.757 ± 0.1
RKKHSHKKAKKK | 0.702 ± 0.014
RKKKNQKHKKKN | 0.705 ± 0.026
RKKKSNLMDDDD | 0.696 ± 0.031
RKKRERIREKKN | 0.494 ± 0.043
RKKRNKQENETK | 0.748 ± 0.013
RKKRNKTKIEKR | 0.719 ± 0.021
RKKVRKTKKIKK | 0.628 ± 0.089
RKLDRDLTPESF | 0.666 ± 0.048
RKNEKKKKKNKK | 0.6645 ± 0.0024
RKNNKKKENKKK | 0.7954 ± 0.0014
RKNQGKKREPRA | 0.653 ± 0.079
RKSSAGLERATG | 0.685 ± 0.018
RKYGWSGIGCRA | 0.659 ± 0.016
RLASPSIISSTL | 0.702 ± 0.0076
RLCDAAVGPEGG | 0.674 ± 0.05
RLETKNITRKHI | 0.681 ± 0.018
RLFRRSPTPALR | 0.8 ± 0.067
RLFSFPPPPTPP | 0.705 ± 0.011
RLFTLVPIGPFM | 0.704 ± 0.055
RLGGGGVGGAGV | 0.699 ± 0.019
RLGGGGVGVAGV | 0.679 ± 0.00083

Sequence | protein stability index
RLGGRGGRLGAE | 0.655 ± 0.0068
RLGLVVRPCSPP | 0.6864 ± 0.0015
RLGYSWGECPGG | 0.699 ± 0.012
RLKFMTGLFLWS | 0.73 ± 0.019
RLKGSPHPVFLY | 0.753 ± 0.055
RLLGRPFRHERG | 0.698 ± 0.043
RLLKRAVRKIFT | 0.61808 ± 0.00049
RLPAPPTVPLPP | 0.6 ± 0.042
RLPPALRRNAPP | 0.665 ± 0.18
RLPSLTGLELFS | 0.685 ± 0.025
RLPTRRSALMGL | 0.738 ± 0.043
RLPVPAAFSSSI | 0.79 ± 0.047
RLRPRRNMIDHA | 0.724 ± 0.057
RLRRCPWLRAWR | 0.7086 ± 0.005
RLSGRRLVNYRP | 0.641 ± 0.036
RLSGWGLGVWQE | 0.681 ± 0.042
RLSIEVREWGDG | 0.642 ± 0.075
RLSSLSSPPPAF | 0.693 ± 0.07
RLSSVPSRSLPA | 0.733 ± 0.096
RLSVRPGPLRLL | 0.68 ± 0.025
RLVFSSCLNALF | 0.724 ± 0.073
RLVLTHVSRCWQ | 0.673 ± 0.065
RLVRSPSRFSWR | 0.667 ± 0.031

Sequence | protein stability index
RLYGILLLSGKE | 0.683 ± 0.019
RMLVNKLSAFFI | 0.64 ± 0.053
RMSLGLHGVMRC | 0.683 ± 0.045
RNCELQSLSSTL | 0.732 ± 0.036
RNDAARLLGESG | 0.698 ± 0.018
RNGFGSWFRWKM | 0.7014 ± 0.0069
RNGGSTWPLLGA | 0.721 ± 0.017
RNILMFSNGVDE | 0.681 ± 0.014
RNLRFEVLAVVI | 0.5272 ± 0.0049
RNPYNTNTVSNI | 0.732 ± 0.08
RNRKQEKKENKN | 0.695 ± 0.022
RNRNKKIIREKK | 0.7 ± 0.033
RNSVGGHENWNQ | 0.703 ± 0.11
RPAASTKWAVQP | 0.6923 ± 0.0021
RPAVSCYTGGDH | 0.7083 ± 0.0056
RPDRPSGLLPRP | 0.701 ± 0.039
RPFHLLPPPPPL | 0.73 ± 0.019
RPFLVGRISFSS | 0.693 ± 0.046
RPFPLPPRPSPP | 0.673 ± 0.13
RPGSMWAQGGVG | 0.566 ± 0.0078
RPISPIAVGSVV | 0.6747 ± 0.0013
RPLAVPPRPSPV | 0.729 ± 0.049
